± gives the uncertainty stated by the source.
Assay: amyloid nucleation score (Sup35N fusion, yeast selection) (log enrichment); library NNK2; higher = more nucleation; inactive = no reads after selection
Summary of the method: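 Psi-negative yeast expressed Sup35N fused to peptides of 20 random codons. They were induced 24 hours with 100 μM copper sulfate, grown 7 days at 30°C without adenine and uracil, and their plasmid inserts from input and output were Illumina-sequenced. The nucleation score is the DiMSum log enrichment of output over input reads, centred on the mode score of non-aggregating sequences. Sequences with under 100 input reads were excluded.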

In order of falling amyloid nucleation score:
1. TIMNYTGCYFGPVGPDRDLG  6.824 ± 0.042
2. VFDIWFLGSDTSSCVNWTYR  6.583 ± 0.048
3. ANVWRSLFAFTIANVTIPR  5.714 ± 0.045
4. WALSHYVCNTYYSNHSVSNT  5.57 ± 0.052
5. SSIVSSPVCPLCGWGWF  5.55 ± 0.069
6. RFYIALMDFRSMIFGS  5.195 ± 0.046
7. SIVYTLTCVL  4.945 ± 0.038
8. CFFSNQMADGYPQRWAVLRD  4.94 ± 0.054
9. FMCLHSARNVVMRMDVRVVL  4.93 ± 0.078
10. QRPRGLNLRYTDTRWIFYGP  4.37 ± 0.045
11. DLVRYFC  4.26 ± 0.055
12. TWTLQQSVLVSEKNAKGRVT  3.98 ± 0.078
13. YACFDCIIIQAWKFSIGTGL  3.7 ± 0.051
14. GVLYLFTVTVMDKKFTM  3.5 ± 0.077
15. WVMAVVDHVLSWFYWRLCLF  3.26 ± 0.058
16. NGARKCFIDAHWESAVANPE  3.2 ± 0.099
17. CFQYTQTNVMRFSYGIGHRE  2.12 ± 0.18
18. WCNTRRCNSPPLVVC  1.86 ± 0.12
19. TSRYTHNCMPIDCMIMHMGI  1.77 ± 0.14
20. SRSVFIRSLAVITVIWILT  1.34 ± 0.13
21. DRRELRHDDAVVAYIDVVIE  1.05 ± 0.28
22. GCQGVEGSESEQIDQIENWA  0.978 ± 0.74
23. SYECPMHTLPVHSRSAYRST  0.878 ± 0.27
24. RLNYA  0.772 ± 0.81
25. SLWRNHMMQ  0.746 ± 0.4
26. MWDNFPCAVVLFKLC  0.696 ± 0.23
27. QDKYTSEECESRFVTYETVV  0.695 ± 0.57
28. LRHCVYVYSATSRWIC  0.674 ± 0.43
29. VSFKDTTGECGDLSYRKNAR  0.646 ± 0.38
30. VCELGRRWDLRSVLSC  0.624 ± 0.42
31. VWCCHLNINVASSLTVSCTR  0.544 ± 0.21
32. HAFLG  0.53 ± 0.5
33. SLGEKRFACLATSCCADDCT  0.508 ± 0.2
34. HLVSSRGRMWPPFAPVGKQD  0.492 ± 0.64
35. GVWYFANFFVVMRAVGCDVG  0.484 ± 0.36
36. LIKLMGLV  0.466 ± 0.43
37. QIIVLALMMWMGCRRRMERK  0.414 ± 0.65
38. LDWHAEHKGSCSFPDNEMLS  0.394 ± 0.56
39. TIDKISCNIRLRPVYMLLNA  0.342 ± 0.56
40. LAKADPWHLKMLFSAMLRQD  0.332 ± 0.26
41. WLTKLDRTSLEGSEYFKKML  0.307 ± 0.34
42. RRRCFQLK  0.294 ± 0.8
43. WLCDWLASIWCMFGLSGCSR  0.232 ± 0.35
44. VLRANGCWLFMLHNLIYLWL  0.172 ± 0.65
45. SLWTYRARTKGCHYVHSVLM  0.164 ± 1.1
46. GGGSG  0.123 ± 1
47. LVCGLDGLVCS  0.111 ± 0.56
48. RVLVVYRSLKVAESLSLTSV  0.093 ± 0.33
49. TRLDVQLGHGIGSV  0.092 ± 1.1
50. KGIDKPIEGPSSKHLRFNCY  0.071 ± 0.65
51. YIHVVNTVSAVGVRRGSVGT  0.031 ± 0.76
52. SILTVKQRTYVNGGRLYSRY  0.005 ± 0.49
53. LTHSRNLRKVRTNRNNETHV  0.005 ± 1
54. QLCFA  -0.031 ± 0.47
55. RLMRAKCMQWVSFQ  -0.034 ± 0.4
56. LNTLDNN  -0.047 ± 0.16
57. CHWSTGRYRDVMICVLWGIS  -0.049 ± 0.34
58. LTRVNWCLPKAGSLKQF  -0.06 ± 0.79
59. AVISGCFMRGLTTRIRTTLM  -0.073 ± 0.74
60. RIIGTDLSRLWWIKFKVKRG  -0.091 ± 0.65
61. LYEVLESVMIGI  -0.097 ± 0.6
62. LCNYLFSFEQMRNN  -0.124 ± 0.42
63. TYTVRFENSRRTGDN  -0.13 ± 0.41
64. VIILRTPYVCSHYWSDPTVL  -0.138 ± 0.56
65. WGHLFRSPSRSSRFYRVLPA  -0.159 ± 1.1
66. LRSRVSSSLSYKLLFRTNVL  -0.175 ± 0.49
67. KMDFAFEA  -0.202 ± 0.8
68. RPFLSTEKRSILMCRVVKGM  -0.254 ± 0.37
69. GIGFKWGTILLKSLGNIYSQ  -0.263 ± 0.76
70. TTHLLFLFLALKNNPRTILT  -0.294 ± 1.1
71. KGSIRCPRVFHQFRFLMG  -0.302 ± 0.74
72. HMEAFWCWFYGNVAFNRFCV  -0.305 ± 1
73. SVLKYS  -0.334 ± 0.63
74. LTSISYIIGDRWSIEVGRVF  -0.337 ± 1.1
75. CRSHVAGFDAHTNILLKPIC  -0.346 ± 0.64
76. QFHADSRQGFNVSEMLCWDG  -0.393 ± 0.49
77. CKSSGGWNVEMWSVK  -0.399 ± 0.41
78. CMDQNVEPCSLVWQTYFPCY  -0.419 ± 0.6
79. LELHMGNLSSSTAYWLRRYS  -0.426 ± 0.48
80. ISVCITILSYVRNECWFRGD  -0.432 ± 0.24
81. RYINWLQYECNTLCAVDKSL  -0.436 ± 0.76
82. IYCNNPRWSFLHSLKLEPLG  -0.476 ± 0.28
83. TSRDWCLDVPWKSHYYEVKY  -0.518 ± 0.48
84. TGHRTRVQTELLAFIAQVN  -0.526 ± 0.63
85. YWTGGLHNEHLSMHVSVYSN  -0.527 ± 1.1
86. VCFVWDKARAMCSFYFV  -0.596 ± 0.79
87. YYIAI  -0.619 ± 1
88. SRSLNWPSAGKLKSDYEFVV  -0.675 ± 0.3
89. INSASESKGKGIILSTNGDS  -0.717 ± 0.39
90. GDYGPSDIMKKQFLFVSLVY  -0.744 ± 1.1
91. FCSSSVIYQKKLA  -0.782 ± 0.24
92. NSSEINHSKG  -0.788 ± 1.1
93. SSFCKPLKVRWLGVIVQLSV  -0.872 ± 0.45
94. VRSRKCLSVRLFSSVMGVSD  -0.88 ± 0.54
95. YKFLLFFYVDTSYVMLFSGF  -0.887 ± 1.1
96. MFNFWWSFYALFKLSWRPGF  -0.996 ± 0.49
97. CAKCVMCSNCPKNSGRILYR  -1.12 ± 1.1
98. YFGMISERFRFPVYFQNSPR  -1.14 ± 1.1
99. GTRNVLIHAK  -1.26 ± 1.1
100. GYNQLLTQGKPGYCFRISRV  -1.29 ± 0.78
101. CCLYYHMIKAWDTTGVRLVN  -1.4 ± 0.78
102. QGIRALRLYKFLTTSLILLI  -1.42 ± 1.1
103. RELQNLFPHCILWSIIMKPN  -1.49 ± 1.1
104. FNFYKWYYIGLTAISFVYTV  -1.51 ± 1
105. VFLGVSGETVNSTGYFTGMN  -2.13 ± 1.1

For HSYLKLVGLCKNSKRFNHNF, the amyloid nucleation score was “inactive”.
For FNIMIWA, the amyloid nucleation score was “inactive”.
For REVDIISHTMGGHRFNRERN, the amyloid nucleation score was “inactive”.
For MWRTLGYHTNMVSA, the amyloid nucleation score was “inactive”.
For CRYYSNPAPSPRLVN, the amyloid nucleation score was “inactive”.
For ISSEWEYHDT, the amyloid nucleation score was “inactive”.
For VCPPSDVS, the amyloid nucleation score was “inactive”.
With YINHSHVRGIVRIYNVQV the amyloid nucleation score was “inactive”.
In the case of SFHWPSTGYKRVYFSPLLIV, the amyloid nucleation score is reported as “inactive”.
For NYYCFQIRMLENNEEVFGIG, the amyloid nucleation score was “inactive”.
In the case of NAFSKSIFKNMTQQKDQLSE, the amyloid nucleation score is reported as “inactive”.
For IPEVQCIKFMSYSGCHIQAL, the amyloid nucleation score was “inactive”.
With DWWLLYNCRSRMMGIKADPL the amyloid nucleation score was “inactive”.
In the case of LLDWTLLSNST, the amyloid nucleation score is reported as “inactive”.
With KIVLGYCVLKITEQELMLWV the amyloid nucleation score was “inactive”.
With QTRTRNLLIAQVECRGRSSW the amyloid nucleation score was “inactive”.
In the case of EQSNSNPSHKY, the amyloid nucleation score is reported as “inactive”.
With IFMAKFSEIPTGPVIIMFYL the amyloid nucleation score was “inactive”.
With LWGLYNREFNAWRGHFVQDG the amyloid nucleation score was “inactive”.

Source: the supplement of paper PMC12042874
